Experimental data reported in publication PMC4703070, “cryo-EM structures of the E. coli replicative DNA polymerase reveal its dynamic interactions with the DNA sliding clamp, exonuclease and τ” (eLife, 2015).

Columns and labels:
[1] = target: PolIIIα (clamp-binding motif QADMF to QLDLF);DNA sliding clamp β;exonuclease ε (clamp-binding motif QTSMAF to … (Escherichia coli;Escherichia …, UniProt P10443;P0A988;P03007;P06710 1-1160;1-366;1-243;500-643, A921L;M923L||T183L;M185L;A186P;F187L|)); test: cryo-EM; 3 mM Mg acetate; 8.0 Å DNA-bound map (7.3 Å for class without visible tail/τ500); EMSA: 20 mM Tris pH 7.5, 4% glycerol, 5 mM DTT, 40 μg/ml BSA, 40 mM K glutamate, 10 min room temperature, native 6% gel; cryo-EM: 25 mM Hepes pH 7.5, 50 mM K glutamate, 3 mM Mg acetate, 2 mM DTT, ~4 μM complex + 20 μM DNA, room temperature, then Tween 20; settings: protein: recombinant;recombinant;recombinant;recombinant; tags: ;;;His-tag removed (HRV 3C); copies: 1;2;1;1; 25 bp duplex, 5' overhang 4 nt on template strand
[2] = target: T1, E. coli DNA polymerase III α with improved clamp binding motif (PolIIIα^QLDLF) (E. coli, UniProt P10443 1-1160, 920-924 QADMF to QLDLF); test: cryo-EM structure; four-protein complex assembled at 15 μM, gel filtration in 25 mM Hepes pH 7.5, 50 mM potassium glutamate, 3 mM magnesium acetate, 2 mM DTT; peak fraction (~4 μM) with 20 μM 25 bp DNA substrate; DNA-free (8.3 Å), DNA-bound (8.0 Å) and DNA-bound without tail (7.3 Å) classes from a single data set; crystal and NMR structures fitted as rigid bodies; settings: both partners purified
T1 construct: DNA polymerase III subunit α (PolIIIα), E. coli; It says that His-tags were removed with 3C protease but not which of the proteins carried one; PDB 2HNH lacks the C-terminal tail; source: E. coli (DE3) BL21, purified (as described in Toste Rêgo et al., 2013)

[3] = target: T2, E. coli DNA sliding clamp β (E. coli, UniProt P0A988 1-366); test: as above; settings: both partners purified
T2 construct: DNA polymerase III β subunit (DNA sliding clamp), E. coli; dimeric; It says that His-tags were removed with 3C protease but not which of the proteins carried one; also called β subunit; source: E. coli (DE3) BL21, purified (as described in Toste Rêgo et al., 2013)

Pol IV = target: T3, Pol IV (Escherichia coli, UniProt Q47155 1-351); test: EMSA; 2.5 μM protein, 5 nM DNA; EMSA: 20 mM Tris pH 7.5, 4% glycerol, 5 mM DTT, 40 μg/ml BSA, 40 mM K glutamate, 10 min room temperature, native 6% gel; cryo-EM: 25 mM Hepes pH 7.5, 50 mM K glutamate, 3 mM Mg acetate, 2 mM DTT, ~4 μM complex + 20 μM DNA, room temperature, then Tween 20; settings: protein: recombinant; label: 6-FAM at 5' end of primer strand; 25 bp duplex, 5' overhang 4 nt on template strand
T3 sequence: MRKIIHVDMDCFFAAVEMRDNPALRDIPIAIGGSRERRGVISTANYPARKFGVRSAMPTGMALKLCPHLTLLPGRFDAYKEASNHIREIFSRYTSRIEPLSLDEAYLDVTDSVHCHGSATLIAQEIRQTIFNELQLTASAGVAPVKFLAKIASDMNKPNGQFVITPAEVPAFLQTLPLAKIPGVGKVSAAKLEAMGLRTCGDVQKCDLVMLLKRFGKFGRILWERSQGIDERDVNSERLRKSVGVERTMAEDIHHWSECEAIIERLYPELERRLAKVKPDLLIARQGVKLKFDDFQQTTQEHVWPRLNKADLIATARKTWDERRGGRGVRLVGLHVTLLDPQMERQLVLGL

Pol I (Klenow fragment) = Pol I (Klenow fragment) (Escherichia coli, UniProt P00582 324-928); test: as above; settings: protein: recombinant; label: 6-FAM at 5' end of primer strand; 25 bp duplex, 5' overhang 4 nt on template strand

B1: 25 bp primer-template with 4 nt overhang (cryo-EM) (dsDNA)
DNA 1: TCAGGAGTCCTTCGTCCTAGTACTACTCC
DNA 2: GGAGTAGTACTAGGACGAAGGACTC
B1: binds [1].

B2: E. coli proofreading exonuclease ε with improved clamp binding motif (exonuclease^QLSLPL) (enzyme, UniProt P03007 1-243, looked up)
chain: MSTAITRQIVLDTETTGMNQIGAHYEGHKIIEIGAVEVVNRRLTGNNFHVYLKPDRLVDPEAFGVHGIADEFLLDKPTFAEVADEFMDYIRGAELVIHNAAFDIGFMDYEFSLLKRDIPKTNTFCKVTDSLAVARKMFPGKRNSLDALCARYEIDNSKRTLHGALLDAQILAEVYLAMTGGQLSLPLAMEGETQQQQGEATIQRIVRQASKLRVVFATDEEIAAHEARLDLVQKKGGSCLWRA
notes: DNA polymerase III subunit ε (proofreading exonuclease), E. coli; residues 190-207 are a missing loop; source: E. coli (DE3) BL21, purified (as described in Toste Rêgo et al., 2013)
B2: binds [2]; binds [3].

B3: τ500 (the polymerase-binding domain of τ: residues 500–643) (domain or fragment, E. coli, UniProt P06710 500-643, looked up)
chain: ALEHEKTPELAAKLAAEAIERDPWAAQVSQLSLPKLVEQVALNAWKEESDNAVCLHLRSSQRHLNNRGAQQKLAEALSMLKGSTVELTIVEDDNPAVRTPLEWRQAIYEEKLAQARESIIADNNIQTLRRFFDAELDEESIRPI
notes: PDB 2AYA (NMR) holds residues 500-621 only; His-tags were removed with human rhinovirus 3C protease; also called τc; C-terminal domain of the clamp loader subunit τ; source: E. coli (DE3) BL21, purified (Histrap HP, Resource S, Superdex 75)
B3: binds [2].

B4: 25 bp primer-template with 4 nt overhang (EMSA) (dsDNA)
DNA 1: TCAGGAGTCCTTCGTCCTAGTACTACTCC
DNA 2: GGAGTAGTACTAGGACGAAGGACTC
modifications: phosphorothioate at 3' terminal bond (primer; strand implied)
B4: binds (Pol IV); binds (Pol I (Klenow fragment)).
